Target: RGS2^5–16 peptide (RGS2 degron, Met^5–Met^16)
Experiment: SPR; Biacore X100; RGS2^5–16 peptide amine-coupled to a CM5 chip (2498 RU), blank reference cell; FBXO44^FBA as analyte, 0.29 to 75 μM, contact time 60 s, regeneration 50 mM NaOH; RU at equilibrium, nonlinear fit of saturation binding; SEC/SPR buffer 20 mM Tris–HCl pH 7.2, 200 mM NaCl

Kd: 2100 nM
B1: FLAG-tagged FBXO44 FBA domain (FBXO44^FBA) (domain or fragment)
chain: FYFLRSLHRNLLHNPCAEEGFEFWSLDVNGGDEWKVEDLSRDQRKEFPNDQVKKYFVTSYYTCLKSQVVDLKAEGYWEELMDTTRPDIEVKDWFAARPDCGSKYQLCVQLLSSAHAPLGTFQPDPATIQQKSDAKWREVSHTFSNYPPGVRYIWFQHGGVDTHYWAGWYGPRVTNSSITIGP

Source: article PMC12554172, “Systematic analysis of the RGS2 degron reveals characteristics of substrate recognition by the F-box protein FBXO44” (The Journal of Biological Chemistry, 2025)
